The values that follow are results of earlier work, collected in publication PMC6387150.

The target in this data set is IL-18 (Homo sapiens) (UniProt Q14116).
Chain of IL-18 (Homo sapiens) (Q14116 37-193): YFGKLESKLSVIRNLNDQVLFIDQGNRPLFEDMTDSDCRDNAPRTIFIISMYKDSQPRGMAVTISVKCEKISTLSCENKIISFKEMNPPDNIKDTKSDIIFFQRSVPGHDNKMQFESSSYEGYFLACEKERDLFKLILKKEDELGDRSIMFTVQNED

Chain of IL-18BP (O95998 31-194): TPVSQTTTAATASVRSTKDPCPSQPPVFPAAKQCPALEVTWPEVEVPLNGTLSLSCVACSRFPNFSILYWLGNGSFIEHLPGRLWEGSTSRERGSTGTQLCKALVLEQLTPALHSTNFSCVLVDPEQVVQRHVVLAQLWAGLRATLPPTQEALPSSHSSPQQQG

By Kd is commonly meant the free concentration of one partner at which half of the binding sites on the other are occupied at equilibrium, for simple one-to-one binding. Regarding IL-18BP (from UniProt O95998), the Kd was 0.4 nM.
